# Test results taken from patent US5851983A, “Elastase inhibitory polypeptide and process for production thereof by recombinant gene technology” (Teijin Limited, priority 1987, dated 1998).
# T1: polymorphonuclear leucocyte elastase from human sputum (Homo sapiens, UniProt P08246)
# T1 construct: Polymorphonuclear leukocyte elastase from human sputum (EPC Co; Funakoshi Yakuhin); purchased EPC Co. (via Funakoshi Yakuhin); host or cells: human sputum
# T1 sequence (P08246 30-267): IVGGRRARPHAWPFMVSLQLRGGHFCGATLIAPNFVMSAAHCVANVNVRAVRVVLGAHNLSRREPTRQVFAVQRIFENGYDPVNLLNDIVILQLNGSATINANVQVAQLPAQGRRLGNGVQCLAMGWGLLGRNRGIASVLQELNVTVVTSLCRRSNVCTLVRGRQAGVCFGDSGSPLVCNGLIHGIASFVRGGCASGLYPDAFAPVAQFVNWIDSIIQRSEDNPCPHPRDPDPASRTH
# B1: SLPI: Human secretory leukoprotease inhibitor; recombinant SLPI of Reference Example 1 used as control (protein)
# chain: SGKSFKAGVCPPKKSAQCLRYKKPECQSDWQCPGKKRCCPDTCGIKCLDPVDTPNPTRRKPGKCPVTYGQCLMLNPPNFCEMDGQCKRDLKCCMGMCGKSCVSPVKA
# How the values were obtained:
# [1] = Partial hydrolysis with healthy human saliva (Examples 15, 16); type: in vitro ADME; settings: 37° C.
# Protocol: Healthy human saliva was filtered through a 0.22 μm filter (Milex GS, Milipore), and in the filtrate was dissolved 1 mg/ml of the SLPI prepared in Reference Example 1. The mixture was then incubated at 37° C. for 30 days. As a control, the SLPI was dissolved in physiological saline (Physisalz; Fuso Yakuhin Kogyo), and the mixture was incubated at 37° C. for 30 days.
# With an elapse of time, samples were taken and to each sample were added a Tris-HCl buffer (pH 6.8), SDS, 2-mercaptoethamel and glycerol, to final concentration of 60 mM, 2% by weight, 4% by weight and 10% by weight, respectively, and the mixture was subjected to an SDS-PAGE (U.K. Laemmli, Nature, 227, 680, 1970). The gel after electrophoresis was stained with Coomussie Brilliant Blue.
# Next, polypeptides in the polyacrylamide gel thus obtained were electrically transferred to a membrane (Immobilon; Milipore) using a Milli Blot-SDE apparatus. After the transfer, the membrane was stained with 0.1% by weight of Coomassie Blue in 40% by weight methanol/1% by weight acetic acid, and washed with water. Then, after air drying, the bands b, c, d and e were excised, and for each band, the PTH-amino acids were cleaved from the N-terminus with an Applied Biosystems Protein Sequences (Applied Biosystems; 470A) and analysed with a PTH analyser (Applied Biosystems, 120A) to determine an amino acid sequence for 10 amino acids from the N-terminus.
# According to the same procedure as described in Example 15, (Asn^55 -Ala^107) SLPI prepared in Example 11 was treated with healthy human saliva at 37° C., and a result is shown in FIG. 13. […] After 12 hours, a new band g (MW about 5,500) appeared.
# Next, according to the same procedure as described in Example 15, the band g was electrically transferred to a membrane and N-terminal amino acid sequence was analyzed. […] The 6th amino acid could not be determined. The N-terminal amino acid sequence of the band g corresponds to an amino acid sequence starting from Arg^59 of SLPI.
# [2] = target: T1, polymorphonuclear leucocyte elastase from human sputum; test: Simultaneous treatment with healthy human saliva and elastase (Examples 28, 29); type: in vitro ADME; settings: 37° C.
# Protocol: (1) Healthy human saliva was ultra-filtered through a 0.22 μm filter (Millex GS, Millipore), and to the filtered saliva were added SLPI and polymorphonuclear leucocyte elastase from human sputum (EPC, Funakoshi Yakuhin) to a final concentration of 50 μM respectively. The mixture was incubated at 37° C., samples were taken as time elapsed, and analyzed by SDS-PAGE as described in Example 27.
# (2) Next, the band J was transferred to a membrane as described in Example 27, and N-terminal amino acid sequence was analyzed.
# (1) According to the same procedure as described in Example 28, to healthy human saliva were dissolved SLPI and polymorphonuclear leucocyte elastase from human sputum to final concentrations of 50 μM and 100 μM respectively, and the mixture was incubated at 37° C. Samples were taken as time elapsed, and analyzed by SDS-PAGE.
# (2) Next, N-terminal amino acid sequence of the band M was analyzed as described in Example 27.
# Porcine FXa [3] = test: Assay for Fxa inhibitory activity (Example 25); type: biochemical; settings: final concentration up to ×10^-5 M; enzyme 1.0 × 10^-8 M
# Protocol: (§1) I. Porcine FXa (Daichi Seiyaku)
# Buffer: Buffer solution for each enzyme is as follow. Thrombin and FXa: 50 mM Tris-HCl, 7.5 mM EDTA-2Na, 175 mM NaCl (pH 8.4) […]
# Substrate solution: for the enzymes F, G, H and I, the following substrate f, g, h or i, respectively, was dissolved to a final concentration shown in Table 14.
# i. Ratio 1:1 mixture of the following compounds: [drawing 5]
# To wells of an ELISA 96-well microtiter plate, were added a solution of (Arg^59 -Ala^107) SLPI obtained in Example 23 and then the enzyme solution, and the mixture was incubated at 37° C. for 10 minutes. Next, the substrate solution was added to develop the color, whose absorption was then measured at 405 nm. As a control, SLPI was used.
# Human plasma thrombin = target: T2, Human plasma thrombin (Homo sapiens, UniProt P00734); test: Assay for thrombin inhibitory activity (Example 36); type: biochemical; settings: final concentration up to ×10^-5 M; enzyme 3 × 10^-9 M
# T2 construct: (5) Human plasma thrombin (Kabi, Daiichi Kagaku Yakuhin); purchased Kabi (via Daiichi Kagaku Yakuhin); host or cells: human plasma
# Protocol: F. Human plasma thrombin (Sigma)
# (§2) Thrombin and FXa: 50 mM Tris-HCl, 7.5 mM EDTA-2Na, 175 mM NaCl (pH 8.4) […]
# (§3) Substrate solution: for the enzymes F, G, H and I, the following substrate f, g, h or i, respectively, was dissolved to a final concentration shown in Table 24.
# f. H.D-Phe-Pip-Arg-pNA (Kabi Vitrum)
# (§4) To wells of an ELISA 96-well microtiter plate, were added a solution of (Arg^58 -Ala^107) SLPI obtained in Example 34 and then the enzyme solution, and the mixture was incubated at 37° C. for 10 minutes. Next, the substrate solution was added to develop the color, whose absorption was then measured at 405 nm. As a control, SLPI was used.
# Human plasma plasmin = target: T3, Human plasma plasmin (Homo sapiens, UniProt P00747); test: Assay for plasmin inhibitory activity (Example 36); type: biochemical; settings: final concentration up to ×10^-5 M; enzyme 1.0 × 10^-7 M
# T3 construct: (6) Human plasma plasmin (Kabi, Daiichi Kagaku Yakuhin); purchased Kabi (via Daiichi Kagaku Yakuhin); host or cells: human plasma
# T3 sequence (P00747 581-810 limits assumed): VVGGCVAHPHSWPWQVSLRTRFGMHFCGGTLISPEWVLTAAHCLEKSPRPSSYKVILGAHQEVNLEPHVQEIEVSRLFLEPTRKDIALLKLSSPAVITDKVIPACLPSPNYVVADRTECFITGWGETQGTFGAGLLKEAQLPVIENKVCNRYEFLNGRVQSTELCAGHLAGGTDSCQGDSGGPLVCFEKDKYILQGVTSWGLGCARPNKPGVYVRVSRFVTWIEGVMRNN
# T3 sequence (P00747 97-580 partner limits assumed): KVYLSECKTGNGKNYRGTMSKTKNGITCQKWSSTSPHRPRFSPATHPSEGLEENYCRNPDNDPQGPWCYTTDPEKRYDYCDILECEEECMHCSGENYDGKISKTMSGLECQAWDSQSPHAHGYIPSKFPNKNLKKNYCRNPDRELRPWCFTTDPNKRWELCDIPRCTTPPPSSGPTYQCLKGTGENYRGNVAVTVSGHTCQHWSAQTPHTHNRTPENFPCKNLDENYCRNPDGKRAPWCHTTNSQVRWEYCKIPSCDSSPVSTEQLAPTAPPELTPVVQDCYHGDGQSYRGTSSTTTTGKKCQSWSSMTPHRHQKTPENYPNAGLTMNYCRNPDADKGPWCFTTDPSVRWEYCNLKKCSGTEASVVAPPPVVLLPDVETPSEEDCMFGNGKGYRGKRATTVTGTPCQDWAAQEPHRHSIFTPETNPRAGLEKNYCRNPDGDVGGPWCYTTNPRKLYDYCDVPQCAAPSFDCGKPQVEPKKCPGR
# Protocol: G. Human plasma plasmin (sigma)
# Plasmin: 50 mM Tris-HCl, 100 mM NaCl (pH 7.4) […]
# as §3
# g. H.D-Val-Leu-Lys-pNA (Kabi Vitrum)
# as §4
# Porcine FXa [4] = test: Assay for Fxa inhibitory activity (Example 36); type: biochemical; settings: final concentration up to ×10^-5 M; enzyme 1.0 × 10^-8 M
# Protocol: as §1, §2, §3
# i. Ratio 1:1 mixture of the following compounds: [drawing 6]
# as §4
molecule,measurement,setting,value
B1,"SDS-PAGE band of SLPI (MW about 13,000) during incubation in healthy human saliva","[1]; 1 mg/ml, up to 30 days",decreased as time elapid
same,SDS-PAGE band after incubation in physiological saline (control),[1]; 30 days,"maintained a band having an MW of about 13,000 during the incubation"
same,cleavage sites in healthy human saliva,"[1]; SDS-PAGE bands, N-terminal sequencing","between Arg^20 -Try^21, Arg^58 -Arg^59, Leu^72 -Met^73, and Met^73 -Leu^74"
same,SDS-PAGE bands on simultaneous treatment with healthy human saliva and elastase,"[2]; 50 μM polypeptide, elastase 50 μM (Example 28) or 100 μM (Example 29)","after 96 hours, a new band J with a molecular weight of about 5,500 appeared"
same,cleavage site on simultaneous treatment with healthy human saliva and elastase,[2]; N-terminal sequencing of SDS-PAGE band,cleaved at the site between Thr^57 -Arg^58
same,inhibitory activity to FXa,Porcine FXa [3],did not exhibit inhibitory activity
same,inhibitory activity to thrombin,Human plasma thrombin,did not exhibit inhibitory activity
same,inhibitory activity to plasmin,Human plasma plasmin,did not exhibit inhibitory activity
same,inhibitory activity to FXa,Porcine FXa [4],did not exhibit inhibitory activity
